Legend:
[1] = tested on: Drug Induced Cytopenia; test: Drug induced cytopenia treated by TPA: blood cell counts after DNR + Ara-C; format: in vivo, mice; settings: n = 10
Procedure: Ninety (90) adult mice were randomly assigned to 9 groups (10 mice per group). No drug was administered in Control group. Model group was given DNR (6 mg/kg)+Ara-C (150 mg/kg) on Day 0. The rest of the 7 groups were given DNR (6 mg/kg)+Ara-C (150 mg/kg) on Day 0, and each group on Day 7, Day 8, and Day 9 was administered with one of the following drugs: G-CSF (10 μg/kg), EPO (500 IU/kg), TPA (12.5 μg/kg), TPA (25 μg/kg), TPA (50 μg/kg), TPA (12.5 μg/kg)+GCSF (10 μg/kg), or TPA (12.5 μg/kg)+EPO (500 IU/kg).

[2] = tested on: neutropenia and thrombocytopenia; test: AML (M2) patient case after DA regimen chemotherapy; format: in vivo, human
Procedure: Patient, diagnosed with AML (M2). Patient's bone marrow myeloblast plus promyelocyte count was about 60%. After they received one standard course of DA regimen (7 Ara C+3 Daunorubicin), their peripheral WBC count dropped to 0.8×10^9/L. They were then administered 150 μg G-CSF each day. After chemotherapy, it took 12 days (duration of neutropenia and thrombocytopenia) to bring both their platelet count and WBC count, including the neutrophil count, back to normal. Their bone marrow myeloblast plus promyelocyte count was about 40%, still way above the normal value (0˜5%). Then, they received their second standard course of DA regimen. After the second course of DA regimen, their peripheral WBC count and platelet count dropped to 0.6×10^9/L and 80×10^9/L respectively. They were then administered TPA plus G-CSF (150 μg TPA followed with 150 μg G-CSF) each day of day 1 and day 2. On day 4 and day 5, they were administered with only 150 μg TPA each day. The WBC counts and neutrophil percentage* in parenthesis were 1.8×10^9/L (39%) on day 3, 6.5×10^9/L (72%) on day 7, and 5.7×10^9/L (77%) on day 14. The estimated duration of neutropenia after chemotherapy was shortened to about 5 days. The platelet counts were 330×10^9/L on day 3, 715×10^9/L on day 7, and 568×10^9/L on day 14. The estimated duration of thrombocytopenia after chemotherapy was shortened to less than 3 days. […]

[3] = tested on: neutropenia; test: Duration of neutropenia after high dose chemotherapy; format: in vivo; settings: stated 'for example'
Excerpt: For example, the duration of neutropenia after high dose chemotherapy and treatment with GCSF is, for example, about 24±3 days. The combination of TPA and GCSF reduces the duration of neutropenia to about 15±3 days, or about a 25% to 50% reduction in the duration of neutropenia.

[4] = tested on: bone marrow stromal cells (BMSCs) from patients of AML in the bone marrow suppression phase; test: BMSC proliferation or inhibition, CCK8 method, AML patients; format: cell-based, human
Procedure: (§1) To explore the effect of TPA alone or combined rhG-CSF on bone marrow hematopoietic cells proliferation and colony formation ability which from patients of acute myeloid leukemia (AML) in the period of bone marrow suppression in vitro and to observe the effect of TPA on bone marrow stromal cells(BMSCs) proliferation or inhibition from patients of AML in the period of myelosuppression and the healthy persons.
(§2) • 1) Human bone marrow cells from the same AML patient after chemotherapy were cultured by methyl cellulose semi-solid culture medium. Groups: Blank, TPA (10 ng/ml), G-CSF (50 ng/ml), TPA (10 ng/ml)+GCSF (50 ng/ml). The experiments were repeated for 4 times. • 2) The stroma cells of bone marrow from the healthy human and the AML patient after chemotherapy were cultured by methyl cellulose semi-solid culture medium. Different TPA concentrations were added. Groups: Blank, TPA (0.1 ng/ml), TPA (1.0 ng/ml), TPA (5 ng/ml), TPA (10 ng/ml), TPA (20 ng/ml), TPA (30 ng/ml). • 3) Cultivation of BMSCs from healthy persons and patients of AML in the bone marrow suppression phase in vitro, added to TPA of different concentrations, 0.1 ng/ml, 1.0 ng/ml, 5 ng/ml, 10 ng/ml, 20 ng/ml, 30 ng/ml, and set up a control to detect cell proliferation or inhibition with CCK8 method. Results and Conclusion: • 1. […]

[5] = tested on: bone marrow stromal cells (BMSCs) from healthy persons; test: BMSC proliferation or inhibition, CCK8 method, healthy persons; format: cell-based, human; settings: healthy persons
Procedure: as §1, §2

[6] = tested on: Human bone marrow cells from the same AML patient after chemotherapy; test: Colony formation of bone marrow hematopoietic cells in methyl cellulose semi-solid culture medium; format: cell-based
Procedure: as §1
• 1) Human bone marrow cells from the same AML patient after chemotherapy were cultured by methyl cellulose semi-solid culture medium. Groups: Blank, TPA (10 ng/ml), G-CSF (50 ng/ml), TPA (10 ng/ml)+GCSF (50 ng/ml). The experiments were repeated for 4 times. • 2) The stroma cells of bone marrow from the healthy human and the AML patient after chemotherapy were cultured by methyl cellulose semi-solid culture medium. Different TPA concentrations were added. Groups: Blank, TPA (0.1 ng/ml), TPA (1.0 ng/ml), TPA (5 ng/ml), TPA (10 ng/ml), TPA (20 ng/ml), TPA (30 ng/ml). • 3) Cultivation of BMSCs from healthy persons and patients of AML in the bone marrow suppression phase in vitro, added to TPA of different concentrations, 0.1 ng/ml, 1.0 ng/ml, 5 ng/ml, 10 ng/ml, 20 ng/ml, 30 ng/ml, and set up a control to detect cell proliferation or inhibition with CCK8 method. Results and Conclusion: • 1. Compared the clones of four groups in incomplete medium, in the control group a small cell clusters can be seen for 24-72 hours, but the cells were dead as time prolong. Cultivated 14 days, control group have no clones formation, CFU-GM are dominated for G-CSF group, TPA alone and combination with G-CSF group have myeloid colony formation, while BFU-E and CFU-GEMM. […] Compared the clones of different concentration of TPA stimulation in incomplete medium, the total clones of 5 ng/ml, 10 ng/ml, 20 ng/ml group are higher than other groups, including 10 ng/ml in the highest, there are statistical significance (both P<0.05). While decreasing or increasing TPA concentration can not improve the colony number. The better concentration of TPA to stimulate the colony formation is 5˜20 ng/ml. […] Compared the clones of different concentration of TPA and G-CSF (50 ng/ml) stimulation in incomplete medium. Combination with G-CSF the better concentration of TPA is 1˜10 ng/ml (both P<0.05). Combination with G-CSF the best concentration of TPA is 5 ng/ml and 1 ng/ml. for CFU-GM and CFU-GEMM. The main clone types are myeloid colones, CFU-GM, also have CFU-GEMM and fewer BFU-E. • 4. […] While TPA group and G-CSF group the number of clones of TPA group and G-CSF group have no statistical significance (P=0.577). • 5. […] Meanwhile, TPA promote bone marroe stromal cells from the AML patients proliferation of concentration 5˜30 ng/ml (cell number 2×10^5/ml). 5 ng/ml of TPA is the best concentration of promoting proliferation, and G-CSF had no effect on the growth of BMSCs from healthy persons or AML patients.

[7] = 8 days after DNR + Ara-c, 1 day after 1st dose, G-CSF 10, EPO 500, TPA 12.5, TPA + GCSF 12.5 + 10, TPA + EPO 12.5 + 500 (μg·kg^−1)
[8] = 9 days after DNR + Ara-c, 1 day after 2nd dose, G-CSF 10, EPO 500, TPA 12.5, TPA + GCSF 12.5 + 10, TPA + EPO 12.5 + 500 (μg·kg^−1)
[9] = 10 days after DNR + Ara-c, 1 day after 3rd dose, G-CSF 10, EPO 500, TPA 12.5, TPA + GCSF 12.5 + 10, TPA + EPO 12.5 + 500 (μg·kg^1)

## EPO: erythropoietin, a glycoprotein hormone that controls erythropoiesis, or red blood cell production
[1]; [7]
  PLT: 385 ± 19.28^(1)(1)(2)(2) ×10^9/L
  RBC: 7.32 ± 0.10^(1)(1)(2)(2) ×10^12/L
  WBC: 3.7 ± 0.69^(1)(1) ×10^9/L
[1]; [8]
  PLT: 935 ± 43.57^(1)(1)(2)(2) ×10^9/L
  RBC: 6.75 ± 0.69^(1)(1)(2) ×10^12/L
  WBC: 5.52 ± 0.34^(1)(1) ×10^9/L
[1]; [9]
  PLT: 1469 ± 75.67^(2)(2) ×10^9/L
  RBC: 8.51 ± 0.86^(1)(1)(2)(2)(3)(3) ×10^12/L
  WBC: 6.45 ± 0.41^(3)(3) ×10^9/L

B1: G-CSF: granulocyte-colony stimulating factor, a glycoprotein that stimulates the bone marrow to produce granulocytes and stem cells (protein, UniProt P09919 31-207, looked up)
Granulocyte …: TPLGPASSLPQSFLLKCLEQVRKIQGDGAALQEKLVSECATYKLCHPEELVLLGHSLGIPWAPLSSCPSQALQLAGCLSQLHSGLFLYQGLLQALEGISPELGPTLDTLQLDVADFATTIWQQMEELGMAPALQPTQGAMPAFASAFQRRAGGVLVASHLQSFLEVSYRVLRHLAQP
[2]; after first DA course and 150 μg G-CSF each day
  bone marrow myeloblast plus promyelocyte count: about 40%
[2]; after first DA course, 150 μg G-CSF each day
  duration of neutropenia and thrombocytopenia: 12 days
[3]
  duration of neutropenia: about 24±3 days
[4]
  effect on the growth of BMSCs: had no effect
[5]
  effect on the growth of BMSCs: had no effect
[6]; bone marrow of AML patients in the period of bone marrow suppression, in vitro
  colony types whose formation is promoted (CFU-GM, CFU-GEMM, BFU-E): promoted the formation of CFU-GM, but had no effect on CFU-GEMM and BFU-E
[6]; incomplete medium, cultivated 14 days, TPA 10 ng/ml, G-CSF 50 ng/ml
  total number of clones: higher than control group
[1]; [7]
  PLT: 373 ± 76.27^(1)(1)(2)(2) ×10^9/L
  RBC: 4.94 ± 0.42^(1)(1) ×10^12/L
  WBC: 5.3 ± 0.62^(1)(2)(2) ×10^9/L
[1]; [8]
  PLT: 949 ± 65.88^(1)(1)(2)(2) ×10^9/L
  RBC: 5.40 ± 0.46^(1)(1) ×10^12/L
  WBC: 6.95 ± 0.44^(2) ×10^9/L
[1]; [9]
  PLT: 1456 ± 91.76^(2)(2) ×10^9/L
  RBC: 5.30 ± 0.34^(1)(1) ×10^12/L
  WBC: 9.14 ± 0.67^(1)(1)(2)(2) ×10^9/L
